Source: US20250325702A1, “COMPOSITIONS AND METHODS FOR EDITING A TRANSTHYRETIN GENE” (Beam Therapeutics Inc., priority 2022, published 2025)
In the oligonucleotide strings, read from the 5' end, every base follows the letter of its sugar. An asterisk marks phosphorothioate; unmarked linkages are phosphodiester. Other units and linkages are bracketed, terminal groups are in braces. A string of capitals states the bases alone. m = 2'-O-methyl; r = 2'-OH (RNA)

Key:
[1] = target: purified cyno TTR protein (Abcam, ab239566) (cyno (Macaca fascicularis)) (UniProt Q8HXW1); assay: sandwich ELISA; known concentrations of purified cyno TTR run on the human TTR kit, read against the human TTR standards
human TTR gene = assay: Base editing in primary human hepatocytes (gRNA + ABE8.8 mRNA transfection, NGS of amplicons); type: cell-based; conditions: for Human hepatocytes- Editing % 625, rep 1 / Human hepatocytes- Editing % 625, rep 2: 625 ng/RNA/mL; for Human hepatocytes- Editing % 625, rep 1 / Human hepatocytes- Editing % 625, rep 2 / Human hepatocytes- Editing % 1250, rep 1 / Human hepatocytes- Editing % 1250, rep 2 / Human hepatocytes- Editing % 2500, rep 1 / Human hepatocytes- Editing % 2500, rep 2: gRNA + ABE8.8 mRNA 1:1; for Human hepatocytes- Editing % 1250, rep 1 / Human hepatocytes- Editing % 1250, rep 2: 1250 ng/RNA/mL; for Human hepatocytes- Editing % 2500, rep 1 / Human hepatocytes- Editing % 2500, rep 2: 2500 ng/RNA/mL; for editing activity (percent splice editing) in human hepatocytes: primary human hepatocytes, ABE8.8 mRNA 1:1, three days after transfection
Source text: In this example, gRNA sequences were identified that permit ABE8.8 (and other ABE variants containing Streptococcus pyogenes Cas9, such as ABE7.10, or another Cas protein that can use the NGG PAM) to either: 1) disrupt the start codon, and/or 2) disrupt splice sites, whether donors or acceptors, via A→G editing within its editing window (roughly positions 4 to 7 in the 20-nt protospacer region of DNA). Five sequences were identified throughout the human TTR gene that disrupt TTR expression (Table 8). gRNAs were synthesized matching each of the protospacer sequences and otherwise conforming to the standard 100-nt Streptococcus pyogenes CRISPR gRNA sequence, with each gRNA molecule having a minimal degree of chemical modifications (specified in Table 8). Each of the gRNAs was co-transfected with an equivalent amount of in vitro transcribed ABE8.8 mRNA (1:1 ratio by molecular weight) into primary human hepatocytes via MessengerMax reagent (Lipofectamine), using various dilutions (2500,1250, 625 ng/RNA/mL) to assess for editing activity at different concentrations of test article.
(§1) For orthogonal protospacer sequences of the corresponding cynomolgus monkey TTR gene sequence, each gRNA was also transfected with an equivalent amount of ABE8.8 mRNA (1:1 ratio by molecular weight) into primary cynomolgus hepatocytes at 5000, 2500, 1250, 625, 312.5, and 156.25 ng/RNA/mL. The mRNA, and corresponding amino acid, sequence of the ABE8.8 (MA004) used in shown below in Table 18. Three days after transfection, genomic DNA was harvested from the hepatocytes, and assessed for base editing with next-generation sequencing of PCR amplicons generated around the target splice site. […] See FIGS. 5A-5C, FIG. 6, and Tables 9-10.

[2] = test system: on-target site and candidate off-target sites; assay: Validation of candidate off-target sites in primary human hepatocytes; type: cell-based; conditions: for editing efficiency at the on-target site: gRNA + ABE8.8 mRNA
Protocol: Several candidate off-target sites were analyzed for off-target editing in human primary hepatocytes.

transthyretin (TTR) gene = assay: Guide RNA screen in HEK293T cells: splice site disruption by base editors and bhCas12b nuclease (Example 5); type: cell-based, human; conditions: editor mRNA + sgRNA
Protocol: The guide RNAs listed in Table 1 were screened for use in editing the transthyretin (TTR) gene by disrupting splice sites (FIG. 29A-29C) or using a bhCas12b nuclease strategy (FIG. 30). 15 total guide RNAs were screened. The screen was performed in HEK293T cells using based editors and bhCas12b delivered as mRNA and the sgRNAs. The guide RNAs sgRNA_361 and sgRNA_362 worked well in splice site disruption (FIGS. 29A-29C) using ABE and/or BE4. Several of the gRNAs functioned well as bhCas 12b nuclease gRNAs.
Cells were cultured at 37° C. with 5% CO2. HEK293T cells [CLBTx013, American Type Cell Culture Collection (ATCC)] were cultured in Dulbecco's modified Eagles medium plus Glutamax (10566-016, Thermo Fisher Scientific) with 10% (v/v) fetal bovine serum (A31606-02, Thermo Fisher Scientific). Cells were tested negative for mycoplasma after receipt from supplier.
HEK293T cells were seeded onto 48-well well Poly-D-Lysine treated BioCoat plates (Corning) at a density of 35,000 cells/well and transfected 18-24 hours after plating. Cells were counted using a NucleoCounter NC-200 (Chemometec). A solution was prepared containing Opti-MEM reduced serum media (ThermoFisher Scientific), the base editor, nuclease, or control mRNA, and sgRNA. The solution was combined with Lipofectamine MessengerMAX (ThermoFisher) in Opti-MEM reduced serum media and left to rest at room temperature for 15 min. […]

[3] = test system: cynomolgus monkey TTR gene; assay: Base editing in primary cynomolgus hepatocytes (gRNA + ABE8.8 mRNA transfection, NGS); type: cell-based; conditions: for Cyno hepatocytes- Editing % 156.25: 156.25 ng/RNA/mL; for Cyno hepatocytes- Editing % 156.25 / Cyno hepatocytes- Editing % 312.5 / Cyno hepatocytes- Editing % 625 / Cyno hepatocytes- Editing % 1250 / Cyno hepatocytes- Editing % 2500 / Cyno hepatocytes- Editing % 5000: gRNA + ABE8.8 mRNA 1:1; for Cyno hepatocytes- Editing % 312.5: 312.5 ng/RNA/mL; for Cyno hepatocytes- Editing % 625: 625 ng/RNA/mL; for Cyno hepatocytes- Editing % 1250: 1250 ng/RNA/mL; for Cyno hepatocytes- Editing % 2500: 2500 ng/RNA/mL; for Cyno hepatocytes- Editing % 5000: 5000 ng/RNA/mL; for editing activity in cynomolgus primary hepatocytes: ABE8.8 mRNA 1:1, three days after transfection
Protocol: as §1

[4] = GA459 On-target site (SEQ ID NO: 468)
[5] = GA459 off-target site OT1 (SEQ ID NO: 1095)
[6] = GA459 off-target site OT3 (SEQ ID NO: 1096)

## antibodies of the human prealbumin (TTR) ELISA kit (Abcam, ab231920) (antibody)
[1]
  cross-reactivity: 4%

## GA457: guide RNA, spacer 5′-GCCAUCCUGCCAAGAAUGAG-3′ (SEQ ID NO: 472), human TTR
Human TTR gene
  Human hepatocytes- Editing % 625, rep 1: 17.24%
  Human hepatocytes- Editing % 625, rep 2: 15.39%
  Human hepatocytes- Editing % 1250, rep 1: 26.49%
  Human hepatocytes- Editing % 1250, rep 2: 24.86%
  Human hepatocytes- Editing % 2500, rep 1: 33.96%
  Human hepatocytes- Editing % 2500, rep 2: 31.31%
  editing activity (percent splice editing) in human hepatocytes: high editing activity
[2]; 47 candidate off-target sites, primary human hepatocytes
  net editing at off-target sites: less than 0.4%
[2]; primary human hepatocytes
  editing efficiency at the on-target site: high editing efficiency

B1: sgRNA_361: guide RNA, SEQ ID NO: 479 (nucleic acid)
guide: mU*mA*mU*rArGrGrArArArArCrCrArGrUrGrArGrUrCrGrUrUrUrUrArGrArGrCrUrArGrArArArUrArGrCrArArGrUrUrArArArArUrArArGrGrCrUrArGrUrCrCrGrUrUrArUrCrArArCrUrUrGrArArArArArGrUrGrGrCrArCrCrGrArGrUrCrGrGrUrGrCmU*mU*mU*rU
Transthyretin (TTR) gene
  splice site disruption using ABE and/or BE4: worked well

B2: GA459: guide RNA, spacer 5′-GCAACUUACCCAGAGGCAAA-3′ (SEQ ID NO: 474) (nucleic acid)
guide: GCAACTTACCCAGAGGCAAAGTTTTAGAGCTAGAAATAGCAAGTTAAAATAAGGCTAGTCCGTTATCAACTTGAAAAAGTGGCACCGAGTCGGTGCTTTT
modifications: chemistry not given here
Human TTR gene
  Human hepatocytes- Editing % 625, rep 1: 3.79%
  Human hepatocytes- Editing % 625, rep 2: 3.89%
  Human hepatocytes- Editing % 1250, rep 1: 5.46%
  Human hepatocytes- Editing % 1250, rep 2: 6.15%
  Human hepatocytes- Editing % 2500, rep 1: 8.5%
  Human hepatocytes- Editing % 2500, rep 2: 8.69%
[2]
  off-target editing observed at candidate off-target sites: little to no off-target editing
[2]; [4]
  SUM Editing %- Human Primary Hepatocytes Treat rep 1: 14.17%
  SUM Editing %- Human Primary Hepatocytes Treat rep 2: 14.29%
[2]; [5]
  SUM Editing %- Human Primary Hepatocytes Treat rep 1: 1.19%
  SUM Editing %- Human Primary Hepatocytes Treat rep 2: 1.25%
[2]; [6]
  SUM Editing %- Human Primary Hepatocytes Treat rep 1: 0.98%
  SUM Editing %- Human Primary Hepatocytes Treat rep 2: 0.82%
[2]; primary human hepatocytes
  editing efficiency at the on-target site: high editing efficiency

B3: GA461: guide RNA, spacer 5′-UACUCACCUCUGCAUGCUCA-3′ (SEQ ID NO: 476) (nucleic acid)
guide: TACTCACCTCTGCATGCTCAGTTTTAGAGCTAGAAATAGCAAGTTAAAATAAGGCTAGTCCGTTATCAACTTGAAAAAGTGGCACCGAGTCGGTGCTTTT
modifications: chemistry not given here
Human TTR gene
  Human hepatocytes- Editing % 625, rep 1: 21.81%
  Human hepatocytes- Editing % 625, rep 2: 22.31%
  Human hepatocytes- Editing % 1250, rep 1: 32.82%
  Human hepatocytes- Editing % 1250, rep 2: 32.38%
  Human hepatocytes- Editing % 2500, rep 1: 40.42%
  Human hepatocytes- Editing % 2500, rep 2: 39.43%
  editing activity (percent splice editing) in human hepatocytes: high editing activity
[3]
  Cyno hepatocytes- Editing % 156.25: 0.07%
  Cyno hepatocytes- Editing % 312.5: 7.45%
  Cyno hepatocytes- Editing % 625: 13.16%
  Cyno hepatocytes- Editing % 1250: 19.46%
  Cyno hepatocytes- Editing % 2500: 29.8%
  Cyno hepatocytes- Editing % 5000: 37.53%
  editing activity in cynomolgus primary hepatocytes: high editing activity
[2]
  off-target editing observed at candidate off-target sites: little to no off-target editing
[2]; primary human hepatocytes
  editing efficiency at the on-target site: high editing efficiency

B4: sgRNA_362: guide RNA, SEQ ID NO: 480 (nucleic acid)
guide: mU*mA*mC*rUrCrArCrCrUrCrUrGrCrArUrGrCrUrCrArGrUrUrUrUrArGrArGrCrUrArGrArArArUrArGrCrArArGrUrUrArArArArUrArArGrGrCrUrArGrUrCrCrGrUrUrArUrCrArArCrUrUrGrArArArArArGrUrGrGrCrArCrCrGrArGrUrCrGrGrUrGrCmU*mU*mU*rU
Transthyretin (TTR) gene
  splice site disruption using ABE and/or BE4: worked well

B5: GA460: guide RNA, spacer 5′-UAUAGGAAAACCAGUGAGUC-3′ (SEQ ID NO: 475) (nucleic acid)
guide: TATAGGAAAACCAGTGAGTCGTTTTAGAGCTAGAAATAGCAAGTTAAAATAAGGCTAGTCCGTTATCAACTTGAAAAAGTGGCACCGAGTCGGTGCTTTT
modifications: chemistry not given here
Human TTR gene
  Human hepatocytes- Editing % 625, rep 1: 23.77%
  Human hepatocytes- Editing % 625, rep 2: 22.27%
  Human hepatocytes- Editing % 1250, rep 1: 38.33%
  Human hepatocytes- Editing % 1250, rep 2: 35.8%
  Human hepatocytes- Editing % 2500, rep 1: 47.61%
  Human hepatocytes- Editing % 2500, rep 2: 47.79%
  editing activity (percent splice editing) in human hepatocytes: high editing activity
[3]
  Cyno hepatocytes- Editing % 156.25: 1.62%
  Cyno hepatocytes- Editing % 312.5: 11.22%
  Cyno hepatocytes- Editing % 625: 18.44%
  Cyno hepatocytes- Editing % 1250: 31.71%
  Cyno hepatocytes- Editing % 2500: 38.25%
  Cyno hepatocytes- Editing % 5000: 40.16%
  editing activity in cynomolgus primary hepatocytes: high editing activity
[2]
  off-target editing observed at candidate off-target sites: little to no off-target editing
[2]; primary human hepatocytes
  editing efficiency at the on-target site: high editing efficiency
